B1: 15-DR592 (SEQ ID NO. 233), anti-hGP130 Mono-Fc VHH (Fc fusion)
chain: QVQLQESGGGSVQAGGSLRLSCTAPGFTSNSCGMDWYRQAPGKEREFVSSISTDGTTGYADSVKGRFTISKDKAKDTVYLQMNSLKPEDTGMYSCKTKDGTIATMELCDFGYWGQGTQVTVSS
notes: Mono-Fc VHH ligand captured on a Protein A chip; not shown: mono-Fc part
B2: 18-DR595 (SEQ ID NO. 236), anti-hGP130 Mono-Fc VHH (Fc fusion)
chain: QVQLQESGGGSVQAGGSLTLSCAASEYAYSTCNMGWYRQAPGKERELVSAFISDGSTYYADSVKGRFTITRDNAKNTVYLQMNSLKPEDTAIYYCSANCYRRLRNYWGQGTQVTVSS
notes: as for B1
B3: 14-DR591 (SEQ ID NO. 232), anti-hGP130 Mono-Fc VHH (Fc fusion)
chain: QVQLQESGGGSVQAGGSLRLSCTASGAIASGYIDSRWCMAWFRQAPGKEREGVAAIWPGGGLTVYADSVKGRFTISRDHAKNTLYLQMNNLKPEDTAMYYCAAGSPRMCPSLEFGFDYWGQGTQVTVSS
notes: Tested as Mono-Fc VHH ligand captured on a Protein A chip; not shown: mono-Fc part
B4: 17-DR594 (SEQ ID NO. 235), anti-hGP130 Mono-Fc VHH (Fc fusion)
chain: QVQLQESGGGSVQAGGSLRLSCVASASTYCTYDMHWYRQAPGKGREFVSAIDSDGTTRYADSVKGRFTISQGTAKNTVYLQMNSLQPEDTAMYYCKTVCVVGSRWSDYWGQGTQVTVSS
notes: as for B1
B5: 16-DR593 (SEQ ID NO. 234), anti-hGP130 Mono-Fc VHH (Fc fusion)
chain: QVQLQESGGGSVQAGGSLRLSCAASGYPYSNGYMGWFRQAPGKEREGVATIYTGDGRTYYADSVKGRFTISRDNAKNTVDLQMSSLKPEDTAMYYCAARAAPLYSSGSPLTRARYNVWGQGTQVTVSS
notes: as for B1
B6: 19-DR596 (SEQ ID NO. 237), anti-hGP130 Mono-Fc VHH (Fc fusion)
chain: QVQLQESGGGLVQPGGSLRLSCTASGLTFDDSVMGWFRQAPGKGREAVSCISSSGANAFYADSVKGRFTISRDNAKNTLYLQMNSLKPEDTATYYCKRGHACAGYYPIPYDDYWGQGTQVTVSS
notes: as for B1
B7: hIL27Ra_VHH19 (VHH)
VHH: QVQLQESGGGSVQAGGSLRLSCRASGSTYSNYCLGWFRQITGKEREGVAVINWVGGMLYFADSVKGRFTVSQDQAKNTVYLQMNSLKPEDTAMYYCAAESVSSFSCGGWLTRPDRVPYWGQGTQVTVSS
B8: hIL27Ra_VHH1 (VHH)
VHH: QVQLQESGGGLVQPGGSLRLSCAASGFTFSSYPMSWVRQAPGKGLEWISTISAGGDTTLYADSVKGRFTSSRDNAKNTLYLQLNSLKTEDAAIYYCAKRIDCNSGYCYRRNYWGQGTQVTVSS
B9: hIL27Ra_VHH15 (VHH)
VHH: QVQLQESGGGSVQAGGSLRLSCVASGYVSCDYFLPSWYRQAPGKEREFVSIIDGTGSTSYAASVKGRFTASQDKGKNIAYLQMNTLKPEDTAMYYCKASCVRGRAISEYWGQGTQVTVSS
B10: hIL27Ra_VHH9 (VHH)
VHH: QVQLQESGGGSVQSGGSLRLSCAASGFTYSTSNSWMAWFRQAPGKEREGVAAIYTVGGSIFYADSVRGRFTISQDATKNMFYLQMNTLKPEDTAMYYCAAASGRLRGKWFWPYEYNYWGQGTQVTVSS
B11: hIL27Ra_VHH21 (VHH)
VHH: QVQLQESGGGLVQPGGSLRLSCAASGFTFSLSSMSWVRQAPGKGLEWVSAISSGGASTYYTDSVKGRFTISRDNAKNMLYLQLNSLKTEDTAMYYCAKGGSGYGDASRMTSPGSQGTQVTVSS
B12: 20-DR597 (SEQ ID NO. 245), anti-hIL27Ra Mono-Fc VHH (Fc fusion)
chain: B8 VHH
notes: as for B1
B13: 24-DR601 (SEQ ID NO. 249), anti-hIL27Ra Mono-Fc VHH (Fc fusion)
chain: B9 VHH
notes: as for B1
B14: 23-DR600 (SEQ ID NO. 248), anti-hIL27Ra Mono-Fc VHH (Fc fusion)
chain: B10 VHH
notes: as for B1

The target of the first test is T1, hGP130-his (Sino Biological, Catalog #10974) (human, UniProt P40189 23-619).
T1 construct: Bought his-tagged cytokine receptor used as SPR analyte; also called human gp130 receptor subunit; IL6 receptor beta subunit; not shown: his tag
T1 sequence: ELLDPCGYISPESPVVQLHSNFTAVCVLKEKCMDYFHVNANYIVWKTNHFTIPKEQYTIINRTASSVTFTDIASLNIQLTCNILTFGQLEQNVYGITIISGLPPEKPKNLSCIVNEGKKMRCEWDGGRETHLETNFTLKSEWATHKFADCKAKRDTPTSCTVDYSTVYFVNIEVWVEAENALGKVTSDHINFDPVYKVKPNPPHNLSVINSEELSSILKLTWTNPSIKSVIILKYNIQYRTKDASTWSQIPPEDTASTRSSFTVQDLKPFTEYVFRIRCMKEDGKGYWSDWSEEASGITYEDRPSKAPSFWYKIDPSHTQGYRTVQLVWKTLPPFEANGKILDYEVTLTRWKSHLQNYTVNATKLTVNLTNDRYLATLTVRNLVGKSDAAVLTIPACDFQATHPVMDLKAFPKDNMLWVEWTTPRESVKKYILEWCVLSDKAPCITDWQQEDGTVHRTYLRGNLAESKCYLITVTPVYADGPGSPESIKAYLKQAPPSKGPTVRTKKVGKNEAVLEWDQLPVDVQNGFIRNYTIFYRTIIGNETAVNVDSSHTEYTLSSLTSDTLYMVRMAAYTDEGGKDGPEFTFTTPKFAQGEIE
Nature of the test: SPR Biacore T200, hgp130 arm. The method, then:
(§1) All experiments were conducted in 10 mM Hepes, 150 mMv NaCl, 0.05% (v/v) Polysorbate 20 (PS20) and 3 mMv EDTA (HBS-EP+ buffer) on a Biacore® T200 instrument equipped with a Protein A chip (Cytiva). Mono-Fc VHH ligands were flowed at 5 μl/min for variable time ranging from 18 to 300 seconds, reaching the capture loads listed in the tables below.
(§2) Following ligand capture, injections of a 2-fold dilution series of his-tagged cytokine receptors typically comprising at least five concentrations between 1 μM and 1 nM were performed in either high performance or single cycle kinetics mode. Surface regeneration was achieved by flowing 10 mMv glycine-HCl, pH 1.5 (60 seconds, 50 μL/min). Buffer-subtracted sensograms were processed with Biacore® T200 Evaluation Software and globally fit with a 1:1 Langmuir binding model (bulk shift set to zero) to extract kinetics and affinity constants (ka, kd, KD). RMAX<100 RU indicates surface density compatible with kinetics analysis. Calculated Rmax were generated using the equation Rmax=Load (RU)×valency of ligand×(Molecular weight of analyte/Molecular weight of ligand. Surface activity was defined as the ratio experimental/calculated Rmax. See tables below for sample information and experimental results.
In the case of B1, the Kd stood at 38 nM, the koff was 0.0059 s⁻¹ and the kon came to 160000 M⁻¹ s⁻¹.
With B2, the Kd was 41 nM, the dissociation rate constant (koff) is 0.0073 s⁻¹ and the kon came to 180000 M⁻¹ s⁻¹.
B3 displayed a Kd of 33 nM, a koff of 0.0019 s⁻¹ and a kon of 59000 M⁻¹ s⁻¹.
The molecule B4 showed a Kd of 58 nM, a koff of 0.0095 s⁻¹ and a kon of 160000 M⁻¹ s⁻¹.
On the same counts, the results for B5 are 82 nM, 0.021 s⁻¹ and 250000 M⁻¹ s⁻¹.
In the case of B6, the Kd was 44 nM, the koff came to 0.0082 s⁻¹ and the kon was 190000 M⁻¹ s⁻¹.

A further test addresses T2, hIL27Ra-his (Origene, Catalog #TP307012) (human, UniProt Q6UWB1 33-516, limits assumed).
T2 construct: Bought his-tagged cytokine receptor used as SPR analyte; also called human IL27 receptor subunit alpha; not shown: his tag
T2 sequence: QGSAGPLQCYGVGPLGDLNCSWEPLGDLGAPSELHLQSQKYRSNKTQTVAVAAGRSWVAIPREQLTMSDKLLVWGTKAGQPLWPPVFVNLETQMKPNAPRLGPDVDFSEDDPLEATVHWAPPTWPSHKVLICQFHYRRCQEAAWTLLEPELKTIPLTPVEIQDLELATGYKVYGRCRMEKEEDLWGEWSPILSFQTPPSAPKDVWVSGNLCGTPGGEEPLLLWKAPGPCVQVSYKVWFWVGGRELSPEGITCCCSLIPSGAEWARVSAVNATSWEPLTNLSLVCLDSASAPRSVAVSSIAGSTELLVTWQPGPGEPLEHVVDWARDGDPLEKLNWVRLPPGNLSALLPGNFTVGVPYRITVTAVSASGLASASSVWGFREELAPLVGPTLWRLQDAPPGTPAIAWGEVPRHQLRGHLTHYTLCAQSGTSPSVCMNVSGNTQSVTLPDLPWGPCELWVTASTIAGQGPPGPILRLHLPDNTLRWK
Nature of the test: SPR Biacore T200, hIL27Ra arm.
Turning to B7, the affinity, expressed as Kd, was 5.2 nM; the koff came to 0.00076 s⁻¹; the kon was 150000 M⁻¹ s⁻¹.
For B8 the same measures were 19 nM, 0.00057 s⁻¹ and 30000 M⁻¹ s⁻¹.
For B9 the same measures were 17 nM, 0.001 s⁻¹ and 59000 M⁻¹ s⁻¹.
In turn, B10 gave a Kd of 4.5 nM, a koff of 0.00041 s⁻¹ and a kon of 91000 M⁻¹ s⁻¹.
For B11 the same measures were 6.1 nM, 0.00077 s⁻¹ and 130000 M⁻¹ s⁻¹.

The next test addresses T1, hGP130-his (Sino Biological, Catalog …). Briefly: SPR Biacore T200; ratio experimental/calculated Rmax. On the procedure: as §1, §2
For B1, the “Surface Activity” value is 33%.
Take B2: the “Surface Activity” value was 33%.
On to B3, for which the “Surface Activity” value was 21%.
The same measure, in the same setting: as for B4, the figure is 21%.
As to B5, the “Surface Activity” value is 20%.
Still for that read-out and setting: with B6 the figure was 28%.

The next test concerns the target T2, hIL27Ra-his (Origene, Catalog #TP307012). The test is described as above. The method, then: as §1, §2
For B12, the “Surface Activity” value is 4%.
Same read-out and setting: as for B13, the figure is 12%.
Same read-out and setting: with B14 the figure was 13%.

The next test concerns the target T1, hGP130-his (Sino Biological, Catalog …). Briefly: SPR Biacore T200; mono-Fc VHH on Protein A chip, hGP130-his analyte. On the procedure:
as §1, §2
Turning to B1, the affinity, expressed as Kd, was 38 nM; the koff worked out at 0.0059 s⁻¹; the kon turned out to be 160000 M⁻¹ s⁻¹.
For B2 the same measures were 41 nM, 0.0073 s⁻¹ and 180000 M⁻¹ s⁻¹.
For B3 the same measures were 33 nM, 0.0019 s⁻¹ and 59000 M⁻¹ s⁻¹.
For B4 the same measures were 58 nM, 0.0095 s⁻¹ and 160000 M⁻¹ s⁻¹.
B5 registered a Kd of 82 nM, a koff of 0.021 s⁻¹ and a kon of 250000 M⁻¹ s⁻¹.
For B6, binding was characterised by a dissociation constant (Kd) of 44 nM, the koff came to 0.0082 s⁻¹ and the kon was found to be 190000 M⁻¹ s⁻¹.

For another test, the target named is T2, hIL27Ra-his (Origene, Catalog #TP307012). Nature of the test: SPR Biacore T200; mono-Fc VHH on Protein A chip, hIL27Ra-his analyte. The method, then: as §1, §2
As for B12, the Kd came to 19 nM, the koff is 0.00057 s⁻¹ and the kon was 30000 M⁻¹ s⁻¹.
Turning to B13, the Kd was found to be 4.5 nM, the koff came out at 0.00041 s⁻¹ and the kon amounted to 91000 M⁻¹ s⁻¹.
On the same counts, the results for B14 are 17 nM, 0.001 s⁻¹ and 59000 M⁻¹ s⁻¹.

Values taken from patent US20240002542A1 (SYNTHEKINE, published 2024).
